Source: US20150361149A1 (FLORIDA STATE UNIVERSITY RESEARCH FOUNDATION, published 2015)
One block for each molecule: values may come before it.

What was measured:
[1] = target: FGFR on NIH 3T3 fibroblasts; assay: cell-based or functional assay
[2] = target: the molecule itself; assay: size-exclusion chromatography of peptide fragments
[3] = target: the molecule itself; assay: X-ray crystal structure (Δ1-10 form)
Source text: Crystals of Monofoil-4PΔ1-10 and Difoil-4PΔ1-10 grew in 2 M ammonium sulfate, 0.1 M Na citrate pH 5.5. Crystals were mounted in a stream of gaseous nitrogen at 100 K and diffraction data were collected at either the Southeast Regional Collaborative Access Team 22-BM beam line (λ=1.00 Å) at the Advanced Photon Source, Argonne National Laboratory, using a MarCCD 300 detector (Mar USA) or at the X25 beam line of the National Synchrotron Light Source at Brookhaven National Laboratory, using an ADSC Q315 CCD detector. Each dataset was collected from a single crystal except Monofoil-4PΔ1-10 and Difoil-4PΔ1-10. Datasets from two crystals of Monofoil-4PΔ1-10 were combined for better completion and redundancy.
Diffraction data were indexed, integrated, and scaled using the HKL2000 software package (Otwinowski Z (1993) Proceedings of the CCP4 Study Weekend: “Data Collection and Processing”, eds Sawyer L, Isaacs N, Bailey S (Science and Engineering Research Council, Daresbury Laboratory, England), pp 56-62 and Otwinowski Z and MinorW (1997) Meth Enzymol 276:307-326). Molecular replacement and model building utilized the PHENIX software package (Zwart P H et al. (2008) Methods Mol Biol 426:419-435), with 5% of the data in the reflection files set aside for Rfree calculations (Brunger A T (1992) Nature 355:472-475). […]

mitogenic activity with 3T3 fibroblasts, EC50 [1]: 0.0584 µg/mL
Molecule: human fibroblast growth factor-1 (FGF-1), 140 amino acid form (from UniProt P05230 16-155) (ligand)

Molecule: YNTYISKKHAEKNWFVGLKKNGSCKRGPRTHYGQKAILFLPLPVSSD (peptide, UniProt P05230 109-155, looked up) [peptide fragment of FGF-1, residues 94-140 (third trefoil-fold subdomain)]
binding result [2]: no binding

Molecule: KPKLLYCSNGGHFLRILPDGTVDGTRDRSDQHIQLQLSAESVG (peptide, UniProt P05230 25-67, looked up) [peptide fragment of FGF-1, residues 10-52 (first trefoil-fold subdomain)]
binding result [2]: no binding

Molecule: EVYIKSTETGQYLAMDTDGLLYGSQTPNEECLFLERLEENH (peptide, UniProt P05230 68-108, looked up) [peptide fragment of FGF-1, residues 53-93 (second trefoil-fold subdomain)]
binding result [2]: no binding

B1: Difoil-4PΔ1-10 (other)
chain: HHHHHHPVLLKSTETGQYLRINPDGTVDGTRDRSDPHIQFQISPEGNGEVLLKSTETGQYLRINPDGTVDGTRDRSDPHIQFQISPEGNG
notes: Form used for crystallisation (PDB 3OGF); Three chains make two β-trefoil folds; also called Difoil-4P* (Δ1-10 mutant form)
binding result [3]: binds
